Data taken from patent US20010016194A1, “COMPOUNDS THAT INHIBIT THE BINDING OF RAF-1 OR 14-3-3 PROTEINS TO THE BETA CHAIN OF IL-2 RECEPTOR, AND PHARMACEUTICAL COMPOSITIONS CONTAINING SAME” (priority 1999, published 2001).

Target: (His)6-Raf-1 protein (UniProt P04049)
Assay: totally cell-free pull-down, anti-Raf-1 immunoblot, densitometry

B1: FLAG-HMK-IL-2Rβ chain containing only the proline rich C-terminal (CT+) (receptor, not shown: small tags and cut ends)
chain: QPLSGEDDAYCTFPSRDDLLLFSPSLLGGPSPPSTAPGGSGAGEERMPPSLQERVPRDWDPQPLGPPTPGVPDLVDFQPPPELVLREAGEEVPDAGPREGVSFPWSRPPGQGEFRALNARLPLNTDAYLSLQELQGQDPTHLV
With B1 the % binding to Raf-1 proteins (of the positive control) was 0 to 10%.
